Test [1] concerns the target T1, recombinant purified human IL-12 p70 (human, UniProt P29459 23-219).
T1 construct: Disulfide-linked heterodimer of p35 and p40; also called hIL-12; Hu IL-12
T1 sequence 1: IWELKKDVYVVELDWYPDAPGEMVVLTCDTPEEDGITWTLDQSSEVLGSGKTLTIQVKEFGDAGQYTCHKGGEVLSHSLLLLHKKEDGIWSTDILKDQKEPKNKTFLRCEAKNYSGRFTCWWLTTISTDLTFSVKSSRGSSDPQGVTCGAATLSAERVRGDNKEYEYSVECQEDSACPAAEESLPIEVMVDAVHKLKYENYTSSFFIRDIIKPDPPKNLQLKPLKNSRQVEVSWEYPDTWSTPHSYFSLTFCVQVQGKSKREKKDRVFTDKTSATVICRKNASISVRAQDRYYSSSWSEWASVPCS
T1 sequence 2: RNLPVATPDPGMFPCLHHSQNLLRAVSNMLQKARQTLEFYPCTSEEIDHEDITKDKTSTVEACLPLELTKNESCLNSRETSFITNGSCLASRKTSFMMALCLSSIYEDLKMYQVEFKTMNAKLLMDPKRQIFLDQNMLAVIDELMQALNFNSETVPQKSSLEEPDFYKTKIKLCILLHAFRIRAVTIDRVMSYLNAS
In words: SPR (Biacore) as in Example 1.1.B, human IL-12p70. As for the experimental part: Approximately 5000 RU of goat anti-mouse IgG, (Fcγ), fragment specific polyclonal antibody (Pierce Biotechnology Inc, Rockford, Ill.) diluted in 10 mM sodium acetate (pH 4.5) was directly immobilized across a CM5 research grade biosensor chip using a standard amine coupling kit according to manufacturer's instructions and procedures at 25 μg/ml. Unreacted moieties on the biosensor surface were blocked with ethanolamine. Modified carboxymethyl dextran surface in flowcell 2 and 4 was used as a reaction surface. Unmodified carboxymethyl dextran without goat anti-mouse IgG in flow cell 1 and 3 was used as the reference surface. For kinetic analysis, rate equations derived from the 1:1 Langmuir binding model were fitted simultaneously to association and dissociation phases of all eight injections (using global fit analysis) with the use of Biaevaluation 4.0.1 software. Purified antibodies were diluted in HEPES-buffered saline for capture across goat anti-mouse IgG specific reaction surfaces. Mouse antibodies to be captured as a ligand (25 μg/ml) were injected over reaction matrices at a flow rate of 5 μl/min. The association and dissociation rate constants, kₒₙ (unit M⁻¹ s⁻¹) and koff (unit s⁻¹) were determined under a continuous flow rate of 25 μl/min. Rate constants were derived by making kinetic binding measurements at ten different antigen concentrations ranging from 10-200 nM. The equilibrium dissociation constant (unit M) of the reaction between mouse antibodies and recombinant purified human IL-12 p70 or recombinant purified human IL-12 p40 was then calculated from the kinetic rate constants by the following formula: KD=koff/kₒₙ. Binding is recorded as a function of time and kinetic rate constants are calculated. In this assay, on-rates as fast as 10⁶M⁻¹ s⁻¹ and off-rates as slow as 10⁻⁶ can be measured. […]
(In general: SPR reads the build-up and loss of mass on a sensor chip optically.)

The target of test [2] is T1, recombinant purified human IL-12 p70. The test can be described thus: cell-based or functional assay.
The target in test [3] is T2, recombinant purified cyno IL-12 p70 (cynomolgus monkey).
T2 chain 1: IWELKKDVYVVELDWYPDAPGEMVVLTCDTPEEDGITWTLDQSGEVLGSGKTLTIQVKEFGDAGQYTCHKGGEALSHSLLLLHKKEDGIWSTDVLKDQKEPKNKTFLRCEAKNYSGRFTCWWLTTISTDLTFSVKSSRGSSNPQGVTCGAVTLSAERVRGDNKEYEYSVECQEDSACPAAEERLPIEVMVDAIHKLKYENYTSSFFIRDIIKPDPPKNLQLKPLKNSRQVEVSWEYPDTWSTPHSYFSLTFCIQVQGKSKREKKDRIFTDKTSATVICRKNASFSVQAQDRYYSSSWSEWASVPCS
T2 chain 2: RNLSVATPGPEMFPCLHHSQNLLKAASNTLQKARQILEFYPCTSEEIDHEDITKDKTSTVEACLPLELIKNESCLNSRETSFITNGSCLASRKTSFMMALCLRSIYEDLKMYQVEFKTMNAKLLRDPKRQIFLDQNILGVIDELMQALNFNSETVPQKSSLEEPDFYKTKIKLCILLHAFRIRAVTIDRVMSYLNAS
In words: cell-based or functional assay.

B1: CDR grafted anti IL-12p40 antibody 1D4.1 (antibody, human IgG1, kappa, L234A L235A, V domains shown)
VH: EVTLRESGPALVKPTQTLTLTCTFSGFSLSKSVMGVSWIRQPPGKALEWLAHIYWDDDKYYNPSLKSRLTISKDTSKNQVVLTMTNMDPVDTATYYCARRGIRSAMDYWGQGTTVTVSS
VL: DIVMTQSPDSLAVSLGERATINCKASQSVSNDVAWYQQKPGQPPKLLIYYASNRYTGVPDRFSGSGSGTDFTLTISSLQAEDVAVYYCQQDYNSPWTFGGGTKVEIKR
notes: Full-length CDR-grafted antibody, COS cells
One may read the Kd as the constant that tells how readily two partners part at equilibrium. For orientation: koff means the first-order rate constant of dissociation. One may read the kon as the second-order rate constant of association. Consider B1, for which, in test [1], the dissociation constant Kd amounted to 0.12 nM, the off-rate constant (koff) was 2.9e-05 s⁻¹ and the on-rate (kon) is 260000 M⁻¹ s⁻¹. Also, the “Av. IC50 (nM) Hu IL-12, PHA blast assay” value in test [2] amounted to 0.47 nM. The “Av. IC50 (nM) Cyno IL-12, PHA blast assay” value in test [3] worked out at 1.5 nM.

B2: CDR grafted anti IL-12p40 antibody 1D4.2 (antibody, human IgG1, kappa, L234A L235A, V domains shown)
VH: EVTLKESGPVLVKPTETLTLTCTVSGFSLSKSVMGVSWIRQPPGKALEWLAHIYWDDDKYYNPSLKSRLTISKDTSKSQVVLTMTNMDPVDTATYYCARRGIRSAMDYWGQGTTVTVSS
VL: EIVMTQSPATLSVSPGERATLSCKASQSVSNDVAWYQQKPGQAPRLLIYYASNRYTGIPARFSGSGSGTEFTLTISSLQSEDFAVYYCQQDYNSPWTFGGGTKVEIKR
notes: as for B1
B2: in test [1], the equilibrium dissociation constant (Kd) stood at 1.7 nM, the off-rate (koff) is 0.00026 s⁻¹ and the kon came to 160000 M⁻¹ s⁻¹. For the same molecule, in test [2], the “Av. IC50 (nM) Hu IL-12, PHA blast assay” value amounted to 3 nM. For the same molecule, the “Av. IC50 (nM) Cyno IL-12, PHA blast assay” value in test [3] came out at 3 nM.

B3: CDR grafted anti IL-12p40 antibody 3G7.1 (antibody, human IgG1, kappa, L234A L235A, V domains shown)
VH: EVQLVQSGAEVKKPGSSVKVSCKASGGTFSDYWIEWVRQAPGQGLEWMGGFSHGSGSTNYNEKFKGRVTITADKSTSTAYMELSSLRSEDTAVYYCARRRFRGMDYWGQGTTVTVSS
VL: DIVMTQSPDSLAVSLGERATINCKASQSVSNDVAWYQQKPGQPPKLLIYYASNRYTGVPDRFSGSGSGTDFTLTISSLQAEDVAVYYCQQDYSSPWSFGGGTKVEIKR
notes: as for B1
Regarding B3, in test [1], the Kd came to 0.22 nM, the koff turned out to be 9.1e-05 s⁻¹ and the kon turned out to be 420000 M⁻¹ s⁻¹. Besides, the “Av. IC50 (nM) Hu IL-12, PHA blast assay” value in test [2] came out at 0.56 nM. Also, the “Av. IC50 (nM) Cyno IL-12, PHA blast assay” value in test [3] was 1.2 nM.

B4: CDR grafted anti IL-12p40 antibody 1A6.1 (antibody, human IgG1, kappa, L234A L235A, V domains shown)
VH: EVTLRESGPALVKPTQTLTLTCTFSGFSLSTSGMGVSWIRQPPGKALEWLAHIWWDGDNYYNPSLKSRLTISKDTSKNQVVLTMTNMDPVDTATYYCARRTRVNYAMDYWGQGTTVTVSS
VL: DIVMTQSPDSLAVSLGERATINCKASQSVSNDVAWYQQKPGQPPKLLIYYASNRYTGVPDRFSGSGSGTDFTLTISSLQAEDVAVYYCQQDYNSPWTFGGGTKVEIKR
notes: as for B1
Consider B4, for which, in test [1], the dissociation constant (Kd) was determined as 0.27 nM, the koff turned out to be 2.9e-05 s⁻¹ and the kon came out at 110000 M⁻¹ s⁻¹. Moreover, the “Av. IC50 (nM) Hu IL-12, PHA blast assay” value in test [2] was determined as 0.48 nM. For the same molecule, in test [3], the “Av. IC50 (nM) Cyno IL-12, PHA blast assay” value was found to be 0.57 nM.

B5: CDR grafted anti IL-12p40 antibody 1D4.3 (antibody, human IgG1, kappa, L234A L235A, V domains shown)
VH: EVTLRESGPALVKPTQTLTLTCTFSGFSLSKSVMGVSWIRQPPGKALEWLAHIYWDDDKYYNPSLKSRLTISKDTSKNQVVLTMTNMDPVDTATYYCARRGIRSAMDYWGQGTTVTVSS
VL: EIVMTQSPATLSVSPGERATLSCKASQSVSNDVAWYQQKPGQAPRLLIYYASNRYTGIPARFSGSGSGTEFTLTISSLQSEDFAVYYCQQDYNSPWTFGGGTKVEIKR
notes: as for B1
For the molecule B5, in test [1], the equilibrium dissociation constant (Kd) worked out at 0.25 nM, the off-rate (koff) came to 5.3e-05 s⁻¹ and the kon was determined as 210000 M⁻¹ s⁻¹. Moreover, the “Av. IC50 (nM) Hu IL-12, PHA blast assay” value in test [2] was found to be 0.83 nM. The “Av. IC50 (nM) Cyno IL-12, PHA blast assay” value in test [3] was 1.6 nM.

B6: CDR grafted anti IL-12p40 antibody 1A6.6 (antibody, human IgG1, kappa, L234A L235A, V domains shown)
VH: EVTLKESGPVLVKPTETLTLTCTVSGFSLSTSGMGVSWIRQPPGKALEWLAHIWWDGDNYYNPSLKSRLTISKDTSKSQVVLTMTNMDPVDTATYYCARRTRVNYAMDYWGQGTTVTVSS
VL: DIVMTQSPDSLAVSLGERATINCKASQSVSNDVAWYQQKPGQPPKLLIYYASNRYTGVPDRFSGSGSGTDFTLTISSLQAEDVAVYYCQQDYNSPWTFGGGTKVEIKR
notes: as for B1
Turning to B6, in test [2], the “Av. IC50 (nM) Hu IL-12, PHA blast assay” value is 0.59 nM. The “Av. IC50 (nM) Cyno IL-12, PHA blast assay” value in test [3] turned out to be 0.14 nM.

B7: CDR grafted anti IL-12p40 antibody 8E1.1 (antibody, human IgG1, kappa, L234A L235A, V domains shown)
VH: EVQLVESGGGLVQPGGSLRLSCAASGFTFSDYGMVWVRQAPGKGLEWVGSISSGSSNIYYADTVKGRFTISRDDSKNSLYLQMNSLKTEDTAVYYCARNPYWGQGTTVTVSS
VL: DIQMTQSPSSLSASVGDRVTITCKASQNVGTNVAWYQQKPEKAPKSLIYSASHRYSGVPSRFSGSGSGTDFTLTISSLQPEDFATYYCQQYNSYPLTFGGGTKVEIKR
notes: as for B1
On to B7, for which, in test [1], the Kd came to 1.7 nM, the koff is 0.00087 s⁻¹ and the association rate constant (kon) is 520000 M⁻¹ s⁻¹. For the same molecule, the “Av. IC50 (nM) Hu IL-12, PHA blast assay” value in test [2] was 2.8 nM. Further, in test [3], the “Av. IC50 (nM) Cyno IL-12, PHA blast assay” value was found to be 4.6 nM.

B8: CDR grafted anti IL-12p40 antibody 1A6.2 (antibody, human IgG1, kappa, L234A L235A, V domains shown)
VH: EVTLKESGPVLVKPTETLTLTCTVSGFSLSTSGMGVSWIRQPPGKALEWLAHIWWDGDNYYNPSLKSRLTISKDTSKSQVVLTMTNMDPVDTATYYCARRTRVNYAMDYWGQGTTVTVSS
VL: EIVMTQSPATLSVSPGERATLSCKASQSVSNDVAWYQQKPGQAPRLLIYYASNRYTGIPARFSGSGSGTEFTLTISSLQSEDFAVYYCQQDYNSPWTFGGGTKVEIKR
notes: as for B1
For B8, in test [1], the dissociation constant (Kd) came to 0.54 nM, the koff came out at 5.4e-05 s⁻¹ and the kon is 100000 M⁻¹ s⁻¹. Besides, in test [2], the “Av. IC50 (nM) Hu IL-12, PHA blast assay” value worked out at 1.1 nM. In addition, the “Av. IC50 (nM) Cyno IL-12, PHA blast assay” value in test [3] is 0.84 nM.

B9: CDR grafted anti IL-12p40 antibody 3G7.2 (antibody, human IgG1, kappa, L234A L235A, V domains shown)
VH: EVQLVQSGAEVKKPGASVKVSCKASGYTFTDYWIEWVRQAPGQGLEWMGGFSHGSGSTNYNEKFKGRVTMTTDTSTSTAYMELRSLRSDDTAVYYCARRRFRGMDYWGQGTTVTVSS
VL: EIVMTQSPATLSVSPGERATLSCKASQSVSNDVAWYQQKPGQAPRLLIYYASNRYTGIPARFSGSGSGTEFTLTISSLQSEDFAVYYCQQDYSSPWSFGGGTKVEIKR
notes: as for B1
Regarding B9, in test [1], the dissociation constant Kd is 0.23 nM, the off-rate (koff) came to 0.00014 s⁻¹ and the on-rate (kon) came to 610000 M⁻¹ s⁻¹. The “Av. IC50 (nM) Hu IL-12, PHA blast assay” value in test [2] stood at 0.24 nM. Besides, the “Av. IC50 (nM) Cyno IL-12, PHA blast assay” value in test [3] amounted to 0.7 nM.

B10: CDR grafted anti IL-12p40 antibody 1A6.5 (antibody, human IgG1, kappa, L234A L235A, V domains shown)
VH: EVTLRESGPALVKPTQTLTLTCTFSGFSLSTSGMGVSWIRQPPGKALEWLAHIWWDGDNYYNPSLKSRLTISKDTSKNQVVLTMTNMDPVDTATYYCARRTRVNYAMDYWGQGTTVTVSS
VL: EIVMTQSPATLSVSPGERATLSCKASQSVSNDVAWYQQKPGQAPRLLIYYASNRYTGIPARFSGSGSGTEFTLTISSLQSEDFAVYYCQQDYNSPWTFGGGTKVEIKR
notes: as for B1
For B10, in test [1], the Kd was 0.43 nM, the koff was 5.6e-05 s⁻¹ and the kon worked out at 130000 M⁻¹ s⁻¹. In addition, the “Av. IC50 (nM) Hu IL-12, PHA blast assay” value in test [2] was 1.9 nM. Also, the “Av. IC50 (nM) Cyno IL-12, PHA blast assay” value in test [3] stood at 1.1 nM.
